The results in this text go back to a protein production outcome set (Wang et al. 2014).

This data set can be described thus: label from the status in PepcDB records.

As for “MISNEEMKSGNILNLFCKFALPAVVGVLIAGIQGIIDGFFIGNAIGSHGLAGITLAYPPYLAIIAAGIIIGIGSSSLIALRLGEGKTGEALEIMNNAFPLCLIAGAVFTAGGLIFCRTSISLLGTNGPALSLASEYLHIIFAGSVFMILAIALDPLVRNNGKPRLCMKIMVAGVLANIILDYLLVMHMEMGMSGAATATVLSFVLPAVLLTHHLLSSQAKLRLRIKSMRVKTATALKILNAGVPSFVMQMSFALMLFVQNYMLLRYGSELAVSAYGVIGYIFSIFYMLFEGIALGVQPIIGFNYGAGNYGRVLKTLKLTILSCTLIGALGFTLIYLFPESLVQIFSQRDSELLDATLQGMDIFMFSLLVEGTVLLTAVYYQSINRVRAALFIHLGKIFIFLFPLLFILPHFFDLNGVWAASPATEYLMAAVVMVMLSKEFDFLRNSRKVEIKQPVTLKITSEVTSKHETSASRNTVKTGNEECTGFIPFKHTEREAS”, the protein production result is “failed”.

On to “MISNFIKRAITGILFVAILVGCILYNSFSFGILFMAISALTIYEFGQLINSRAEGVNVNKTIIMLGGAYLFLAVMGFCIDAADSKIFIPYLLLLLYLMISELYLKKASSMLNWAYSMLSQLYIGLPFALLNVLAFHTDPEYSSVSYNPILPLSIFIFLWLSDTGAYCVGSLIGKHRLFERISPKKSWEGSIGGGVVAIGASFVLAHYFTIMSMWEWAGLALVVVVFGTWGDLTESLLKRQLHVKDSGTILPGHGGMLDRFDSALMAIPAAVFYLYALTWF”, for which the protein production result is “failed”.

With “MISNKRRPKIKIWNKEQMALYLKAIKKDRLYAAFVTDSKSGLRKSELLALRWSDIDFSTGLTKIERGWVRSPKGTLYLSDLKSENSERTLVFSTDLLKVLLEHKSRQDEEKKTAGKNYIDNGLVFCREDGSYINPSTFTRRHYDLTAKAKLPRISVHALRHSISTALLESGKVDLKQIQEMLGHKDISTTGNYYTDVLERMKQKTSELIDNLIQTELEHHHHHH”, the protein production entry is on record as “failed”.

For “MISNNTRRVYRISFSFFEQYCLEHNLQSLPADPRSIISFIGHQKELLQASTGMQLSKQTLTTRIAAIRFYHIQAGFPTPTEHPQVIRVMRGLSRNHHRLVQDYDQQPLEHHHHHH”, the protein production entry is given as “failed”.

In the case of “MISPELVKEALKKKKVRSEEAFGLEYLRFNDDYKDIPRGTAIFKDFIIWGYPHIGRIFLLETGLREQFEAPFWVEEKVDGYNTRIFKYGDNYYALSRGGFICPFTTDRLPDLIDLRILDENPDLVICAEVAGPENPYIEESPPYVKEDVQLFVFDFMKKNEQGFLSQEEKMELIEKYNLPHVEILGRFTASEEGIKKIKEILKRFNEEGREGVVFKEDSERNKRAKYITSYANLMDIKTNAKNMLQLPPEYYTNRILRLVLFMYEEGLKTTEHLYEELGRAFIDGLFQAIEQFEKEHKVYKTFTCKFRKKENAIALLELLSKTSKHIQVKERRLEKEGDYWRLEFDKVFLNMTGLLGHLLSGGIVYD”, the protein production entry is “not failed”.

In the case of “MISRRTFALAAVASVLLGGTFVGAKAGLSYLPPLLFVALRFDIAAVVLLGYVVVTRSRDELLPRTRGDVLGILSTGLFALGLANALIFVGQQSATSAVAAIIFSLNPILTPVFAAILLSDERLSARGGLGMVIGLLGVGLVVSPDPAMLLSGGIGKLILFAGAASAALGSVLIRWSGGGLSSTVRTAWALPVAAALCHALSIGMGESAATAVWSPTAIAALLYVGIFAGAIAYIAYFGLLDVTGAIQANLIFYVVPVVSTLGGWALLGEAITPTAVAGFLTIFTGFVVLGSESVDIRALLPATTDEGDTVSESLGIADEQRGFESD”, the protein production entry is recorded as “failed”.

Take “MISVCIATYNGEKYLAEQLDSILLQVSEEDELIISDDGSTDHTLEILRTYAANYPQIQLLQGPGQGVIANFAFALTHTKGEVIFLADQDDVWLPNKVTTVTEYFETHPDIQVVISDLKIVDADLQVTNPSYFKFRKVKPGFWRNAIKSGYIGAGMAFRQEMKNVILPIPPEVPMHDMWIGLLAARKKQTGLIKEPLVLYRRHGANVSPIITKTSFQQKLNWRVNLLKALHQRLKEQRLEHHHHHH”: the protein production entry is “not failed”.

Turning to “MITDCCPGFGSVAKYIAVSMLEASFDVASMAKTSTKVFILEVMGRHAGWIAAAGGLASNEDHEVPIIILFPEVTFDQEKFLAKTDHYVKEYGYCTVVVSEGVKGTDGKFLSDQGLRDAFGHAQLGGVAPVIANIVKNGLGLEHHHHHH”, the protein production entry is listed as “not failed”.

For the sequence “MITDEHIELFLAQAHRYGDAKLMLCSSGNLSWRIGEEALISGTGSWVPTLAKEKVSICNIASGTPTNGVKPSMESTFHLGVLRERPDVNVVLHFQSEYATAISCMKNKPTNFNVTAEIPCHVGSEIPVIPYYRPGSPELAKAVVEAMLKHNSVLLTNHGQVVCGKDFDQVYERATFFEMACRIIVQSGGDYSVLTPEEIEDLEIYVLGKKTK”, the protein production entry is recorded as “not failed”.

For “MITIDALGQVCPIPVIRAKKALAELGEAGGVVTVLVDNDISRQNLQKMAEGMGYQAEYLEKDNGVIEVTIVAGEGCAVETSGTAADSGLVVAIGRNTMGEGSEELGRILLKGFIYSLRELTPPPARLLFFNSGAHLTSKDSNSIEDLKAMAAQGTIIQTCGTCLNYYGITEQLAVGQVANMYDIVTAMTEAKRLINI”, the protein production entry is recorded as “failed”.

As to “MITLAVRLKNLAFLLIAVLALSFLGIRYADLGRYVGVADYYTVDVHLPRTGGLFTHSDVTYRGVSVGRVGPIDLTAEGVVAELRIKKSAPRIPADTKAVVAGLSAVGEQYIDLRPESDGSPYLADGTRIEQADTEVPAPVTDVLTSVDDLASSVPLEDLRTVVDEFGKAFDGHGDDLQVLLDSGSDFVEAADRALPSTTLLINDGETVLRTQAQEARAIRDFAVGAKDLAAALKGSDADLRRLLAVTPEAATQVSGLLRDLDPSLGVVLANLLTTSEVAVTRQRGIEELLVKYPAAVSAGATAVDGGKLDLGLAVTFFSPLPCTDGYGGTRYRNGLDLGTAPALNTDAACTAPASGGKNVRGSANAPKSGAVPDPATPGSLPSGGGRTTPAGGGSPARDGSTALPGALALPGQSGEAPAGLTGLLAPAAGGARLEHHHHHH”, the protein production entry is “failed”.

With “MITLTKEGGPADLDGVTHLSIGVSWDPTAGSSGGVLGKLRRKTGTDLDLIAVAMQGGDPVRLAGLDSLDPMGNGSLLHSGDNQTGHGDGDDETVTVEFARLPSAITSIVFVAAAYKKGSSFQKARNISFKVYDATGGSSEQVADIWPSLLSQDNGCAVAKAVRVGGTWKLEVVNETGKIKQGDEHALMRFAVSK”, the protein production entry is recorded as “failed”.

Consider “MITMKISSRFSIAVHILSILKNNPSSLCTSDYMAESVNTNPVVIRKIMSYLKQAGFVYVNRGPGGAGLLKDLHEITLLDVYHAVNVVEEDKLFHIHEQPNPDCPIGANIQAVLEIILIQAQSAMEEVLRNITMGQLFETLQEKMNA”, for which the protein production entry is reported as “not failed”.

As to “MITRLTDIELEQIRGVIFDLDGTLAHSNPDFKGLRAALGIGSGTDILEHIHSLETTVAKMQALEIVHDYELESSRQASWIEGAQALIAFLKTRQLPLAILTRNMPEAAKITIEKLGIDIPLVLTRYDAEPKPHPQGIYLICEQWQLNPADILYVGDYLFDLQTAQNAGSRCALYCPEDVPDYAQAADLLVSCYHSLIQAWPK”, the protein production result was “failed”.

For “MITSRSTGELVIPVSRRINNKDGNFGGVFLVTLRVQYFSRFYADFRMDEQGVIVLADQNGTIMVRHPFDTNMIGRNIAKGDIFSKYLPHASRGVHMVVAITDKVERMYGYERLNRYPLVVLAGKSKRAILGSWYESLYGSLIMLCLILPIPVLFATLISRQIKTTLKVEDELRLAYAAVEAIAMQDSLTGLANRRQLDVVLPAEIKRAKRTSQPLGVIMVDIDYFKRYNDYYGHPAGDLCIKAIANVLKNHTRRAGNLAARYGGEELTVLLPSCDQAAVLAAAERIVESIRGLQIAHDDSPEGYLTVSVGAYSYSAFNKEVDASGLLKCADDALYAAKQAGRNRARLSA”, the protein production entry was “failed”.

On to “MIVDFETHFITEACIDYLTQRQEVPKLVPDLNGAYTMCFTPDVSLFHTSALMEELLSLNEQRLAIMDQAGVTIQVLSLTTINGIDSCPGDENKSTALAREVNDQLYSAIQRHPERFKGFASISPYDVKEGVKELERAISQLGFVGWLTHSNFGQDNYLDDKTYWPLLEAAEGLNIPIYLHPNVPIMREFGKYGFALGGSALGFEFDTALCLMRMILGGVFDAFPKLKIMLGHLGETMPFLMERLDHLYRIPDLKAYRPSIQRIPSEVLRQNVYITTSGRFFVPALRYVLEVMGEDRVLFASDYPMESLLDATRFIQDSDLSNQTKQKIFSINAKNLNLILEHHHHHH”, for which the protein production result is “failed”.

Regarding “MIVFDGHNDVLTELVRAGGRAAAGGFLSGLPGQLDLPRARAGGFGGGFFALWARSEGATDFSTLGPEYDLPLPEPVPEAQAWEMIRAQADTLVALEEAGAVRICTSTAQIARARDEGLLGAILHLEGAEGIGPDFYELEELYALGLRSLGPVWSRPNAFGHGVPFRYPSGPDIGPGLTERGRALIARCEELRILIDLSHLNLAGFREVAALSKRPLVATHSNAHARVPHARNLTDEQLRIMAESGGLAGVNFESTFLRPDGRPDDDIPAAWLLAQFDHLLDRLGEEGVAIGSDYDGCTPPAWLNSVDKLPALIAAMERHGYPAARIERICWGNWMRVLAETWGESA”, the protein production entry was “failed”.

For the sequence “MIVLALLGVLLLSVYAYKTKKLTLSGAISAFVVGALISFGLGFKGLLLLAIFFFTSGFWSRFYQERKENEITAKGSTRDGWQVLANGGFAAICALLFSILQDPIYICGFVASLAAANADTWASEVGPLAKRRPIHIIKWKPVDAGTSGAVSAIGTAAAFAGSFIIVVVSIFFWWSSSFASHHLLFSLTLAGFLGNLFDTLVGATGQVLYQCPRCGLETERKIHCNGPTEKKYGLRFLNNDTVNAICTGTGALFGIVAGLILL”, the protein production entry is “failed”.

Regarding “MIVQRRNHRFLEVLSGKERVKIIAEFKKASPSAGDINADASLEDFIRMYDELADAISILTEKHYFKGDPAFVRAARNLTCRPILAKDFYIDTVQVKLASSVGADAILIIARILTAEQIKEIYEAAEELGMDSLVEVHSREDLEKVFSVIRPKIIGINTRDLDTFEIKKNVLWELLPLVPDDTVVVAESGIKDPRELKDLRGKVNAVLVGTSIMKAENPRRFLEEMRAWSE”, the protein production result was “not failed”.

In the case of “MIVSVVIPVAKEGNTLYERIHLINKHFNSLSSSHKFSYEIILVSDIFHKPTLKAMIRLAKENVAKCLLLTQRIGKGGSIKNAIPFSRGDYIVILDADIPVRPIFINQAVVLAMNLGIDLIIANRVYRTHSLLRRVLSVAYNSLVNLLFKTGLRDHQAGLKILSRRAAKIILMKRTRTDGLAYDTEIVVWAKRHGLRYRAVNVVWREQREGSTIPPMRALLTMLADLIMLRLLTLAGKYVALQKLVIGRVIDLGNIHTVGQEFMTVIRASRPKNHLLNVLRKLYIAVALRR”, the protein production entry is reported as “failed”.

In the case of “MIWIILASFLMYSIFVMWFSWYKTRGTDLSSSDGYFLGGRSLTGIVIASSLILTNLSTEQVVGLNGQAFGESMVVMAWEVTAPIALILMAFVFLPRYLKLGITTIPDFLEQRFDLRTRQIVSVLFLLGYATVFLPTVLYSGALVIDSIFSLSSVMDISPFMIVLCISIAIGIISCGYVILGGLKACAMSDTINGIGLIIGGLLIPILALFVLGRGDFASGVGELVSANPTKLNAIGNDQASVPWAVLLTGLLFNNLFYWCTNQSIIQRTLAAKNLAEGQKGVLFAGMFKIFGAAFLVLPGIIAYLLYGDVLANADMAYPSLVIDVMPVALSGFLAAVLFGAILSSFNNVLNSSITLFTLDIYKPIFKPNAKEPELVKAGRIFAACLAITAVVIAPFILYAPQGLYYFLQEMNGFYSLPIIAMVIVGFFSKYVPASAPKVLVAVHVVLYAGSKVVLGEVNFLYVLSVLFPINVLVMLIVGRLKPRETSFVLPTANKVDLTPWKYAKPFSAFILLTMLGVYTFFSPLGVAESSGGYTIYQFIFFIVTLAFIGGVVLFWKKTDRIRGGRVPLNQMYPFNQKSG”, the protein production entry is recorded as “failed”.
